Target: GDI.Cdc42 FLARE biosensor, wild type (Cdc42 with an N-terminal FRET binding antenna) (UniProt P60953 1-191)
Assay: FRET or BRET

Sequence of GDI.Cdc42 FLARE biosensor, wild type (Cdc42 with an N-terminal FRET binding antenna) (P60953 whole entry): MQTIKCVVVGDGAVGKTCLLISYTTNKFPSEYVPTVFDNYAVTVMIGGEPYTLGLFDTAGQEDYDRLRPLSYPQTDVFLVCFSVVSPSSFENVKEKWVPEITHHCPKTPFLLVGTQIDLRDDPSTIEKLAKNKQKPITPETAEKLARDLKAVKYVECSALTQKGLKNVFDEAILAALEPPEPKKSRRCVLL

B1: RhoGDI1 (RhoGDIα), wild type, unlabeled, co-expressed in excess (natural protein)
chain: MAEQEPTAEQLAQIAAENEEDEHSVNYKPPAQKSIQEIQELDKDDESLRKYKEALLGRVAVSADPNVPNVVVTGLTLVCSSAPGPLELDLTGDLESFKKQSFVLKEGVEYRIKISFRVNREIVSGMKYIQHTYRKGVKIDKTDYMVGSYGPRAEEYEFLTPVEEAPKGMLARGSYSIKSRFTDDDKTDHLSWEWNLTIKKDWKD
For B1, the “increase in FRET/CFP emission ratio” value was 218%.

Reference: paper PMC5030135 (Nature chemical biology, 2016)
